This series deals with the molecule itself. As to the kind of experiment: co-expression in CHO-3E7, gel analysis (FIG. 6). Here is the method: High level and high-throughput recombinant protein production by transient transfection of suspension-growing […] CHO-3E7 was performed. See Table 3 for construct boundaries of the two scaffolds described here: Albumin based heteromultimer 1 (ABH1) and Albumin based heteromultimer 2 (ABH2). Albumin based heteromultimer 2 comprises one disulfide bond between the two transporter polypeptides, while Albumin based heteromultimer 1 is formed entirely by non-covalent interactions. FIG. 6A provides SDS-PAGE (non-reducing) gel analysis of the two heteromultimer constructs (ABH1 and ABH2), after co-expression (different DNA transfection ratios are shown). WT full-length HSA is shown as control. As expected, ABH2 retains the disulfide linkage in non-reducing SDS-PAGE, with a MW roughly double the non-disulfide linked ABH1. FIG. 6B provides Native gel analysis of the two Albumin based heteromultimer constructs (ABH1 and ABH2), after co-expression (1:1 DNA level). WT full-length HSA is shown as control. […]
WT-HSA and the two Albumin based heteromultimers (ABH1 and ABH2) were expressed in CHO-3E7 cell line grown in suspension in FreeStyle F17 medium (Invitrogen) supplemented with 0.1% w/v pluronic and 4 mM glutamine. […] At 24-48 hours, GFP positive cells should be between 30-60% as determined by flow cytometry.

B1: Albumin based Transporter polypeptide 1-Ver 1 (other)
chain: DAHKSEVAHRFKDLGEENFKALVLIAFAQYLQQCPFEDHVKLVNEVTEFAKTCVADESAENCDKSLHTLFGDKLCTVATLRETYGEMADCCAKQEPERNECFLQHKDDNPNLPRLVRPEVDVMCTAFHDNEETFLKKYLYEIARRHPYFYAPELLFFAKRYKAAFTECCQAADKAACLLPKLDELRDEGKASSAKQRLKCASLQKFGERAFKAWAVARLSQRFPKAEFAEVSKLVTDLTKVHTECCHGDLLECADDRADLAKYICENQDSISSKLKECCEKPLLEKSHCIAEV
notes: also called ABH1 segment 1:293
B1: the binding result is “no binding”.

B2: Albumin based Transporter polypeptide 1-Ver 2 (other)
chain: DAHKSEVAHRFKDLGEENFKALVLIAFAQYLQQCPFEDHVKLVNEVTEFAKTCVADESAENCDKSLHTLFGDKLCTVATLRETYGEMADCCAKQEPERNECFLQHKDDNPNLPRLVRPEVDVMCTAFHDNEETFLKKYLYEIARRHPYFYAPELLFFAKRYKAAFTECCQAADKAACLLPKLDELRDEGKASSAKQRLKCASLQKFGERAFKAWAVARLSQRFPKAEFAEVSKLVTDLTKVHTECCHGDLLECADDRADLAKYICENQDSISSKLKECCEKPLLEKSHCIAEVENDEMPADLPSLAADFVESKDVCKNYAEAKDVFLGMFLYEYARA
notes: First chain of ABH2; also called F1; ABH2 segment 1:337
Consider B2, for which the binding result is reported as “no binding”.
